Measurements published in patent publication US20130330346A1 (Novartis, published 2013).

T1: Human CXCR2 (human, UniProt P25025 1-360)
T1 construct: Some cell lines carry an N-terminal 3xHA tag; also called hCXCR2; huCXCR2
T1 sequence: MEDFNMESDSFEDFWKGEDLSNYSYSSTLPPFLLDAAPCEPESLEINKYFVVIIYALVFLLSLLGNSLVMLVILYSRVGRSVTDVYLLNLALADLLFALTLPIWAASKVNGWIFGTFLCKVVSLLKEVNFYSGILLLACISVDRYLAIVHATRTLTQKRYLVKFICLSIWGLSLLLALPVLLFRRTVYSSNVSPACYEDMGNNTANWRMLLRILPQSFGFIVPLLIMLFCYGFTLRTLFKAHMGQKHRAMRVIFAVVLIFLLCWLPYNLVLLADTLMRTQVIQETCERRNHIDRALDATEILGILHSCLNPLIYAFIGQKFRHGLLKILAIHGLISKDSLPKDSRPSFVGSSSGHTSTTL

T2: Cynomolgus CXCR2 (cynomolgus, UniProt Q28519 3-353 (rhesus entry))
T2 construct: On transfected HEK293T or RBL-2H3 cells; native on cynomolgus neutrophils in the WBSC assay; also called cCXCR2; cynoCXCR2
T2 chain: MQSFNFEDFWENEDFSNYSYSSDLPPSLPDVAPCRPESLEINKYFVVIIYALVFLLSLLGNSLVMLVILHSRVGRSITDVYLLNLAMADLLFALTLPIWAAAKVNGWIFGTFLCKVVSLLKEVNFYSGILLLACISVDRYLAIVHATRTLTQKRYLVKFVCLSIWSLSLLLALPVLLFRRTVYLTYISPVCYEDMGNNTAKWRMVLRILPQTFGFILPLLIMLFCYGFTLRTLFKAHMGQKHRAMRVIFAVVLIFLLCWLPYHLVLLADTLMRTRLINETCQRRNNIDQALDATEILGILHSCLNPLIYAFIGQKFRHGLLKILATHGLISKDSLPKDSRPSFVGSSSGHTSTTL


Tests used:
Human CXCR2 [1] = biological target: T1, Human CXCR2; experiment: FACS, periplasmic extract vs FMAT Blue Gro-α
Description: Periplasmic extracts (as described above) were analyzed on FACS for competition with Gro-α in binding to human CXCR2. 2×10⁵ cells were incubated with a ½ dilution of periplasmic extracts in FACS buffer (PBS+10% fetal bovine serum (Sigma, F7524)) for 30 minutes at 4° C. Then, an equal volume of 6 nM of FMAT Blue-labeled human Gro-α in FACS buffer was added and incubation was continued for another 30 minutes at 4° C. in the dark. Cells were then washed three times in FACS buffer and finally resuspended in FACS buffer. Dead cells were stained with propidium iodide (Sigma, P4170). Samples were then analyzed on a FACSarray (BD Biosciences).

Human CXCR2 [2] = biological target: T1, Human CXCR2; experiment: cell-based or functional assay
Cynomolgus CXCR2 [3] = biological target: T2, Cynomolgus CXCR2; experiment: FACS competition vs 3 nM FMAT-Blue Gro-α
Description: (§1) Multivalent anti-CXCR2Nanobodies were titrated against 3 nM FMAT-Blue-labeled Gro-α in the FACS ligand competition assay on human and cynomolgus CXCR2 (Table 14). On human CXCR2, blocking potencies range between double digit nM and sub-nM whereas on cynomolgus CXCR2, they range between single and double digit nM.

Human CXCR2 [4] = biological target: T1, Human CXCR2; experiment: FACS competition vs 3 nM FMAT-Blue Gro-α
Description: as §1

Cynomolgus CXCR2 [5] = biological target: T2, Cynomolgus CXCR2; experiment: cell-based or functional assay
Human CXCR2 [6] = biological target: T1, Human CXCR2; experiment: cell-based or functional assay; remark: listed apart in the source

Binder | FACS Gro-α competition (% inhibition) (Human CXCR2 [1]) [%] | [35S]GTPγS % inhibition of max (ENA-78) (Human CXCR2 [2]) [%] | [35S]GTPγS % inhibition of max (IL-8) (Human CXCR2 [2]) [%] | [35S]GTPγS IC50 (ENA-78) (Human CXCR2 [2]) [nM] | [35S]GTPγS IC50 (IL-8) (Human CXCR2 [2]) [nM] | % inhibition of max (Cynomolgus CXCR2 [3]) [%] | IC50 (Cynomolgus CXCR2 [3]) [nM] | % inhibition of max (Human CXCR2 [4]) [%] | IC50 (Human CXCR2 [4]) [nM] | FLIPR % inhibition of max (Cynomolgus CXCR2 [5]) [%] | FLIPR IC50 (GRO-α induced calcium release) (Cynomolgus CXCR2 [5]) [nM] | FLIPR % inhibition of max (Human CXCR2 [6]) [%] | FLIPR IC50 (GRO-α induced calcium release) (Human CXCR2 [6]) [nM] | [35S]GTPγS % inhibition of max (GRO-α) (Human CXCR2 [2]) [%] | [35S]GTPγS IC50 (GRO-α) (Human CXCR2 [2]) [nM]
145D3 (VHH, Tested as periplasmic extract only; also called 145D03; not shown: C-terminal c-myc tag and His6 tag coded by the vector) VHH: EVQLVESGGGLVQAGGSLSLSCAASGLIFRLSGMAWYRQAPGRQREWVAVLTKDGTLHYADPVKGRFTISRNNAENTWYLQMNSLKPEDTAIYYCNTGRYWGQGTQVTVSS | 77.9 |  |  |  |  |  |  |  |  |  |  |  |  |  | 
CXCR20022 (VHH, Bivalent: two VHH joined by a GlySer linker; also called 163D2-35GS-163D2; not shown: C-terminal c-myc tag and His6 tag coded by pAX100) EVQLVESGGGLVQAGGSLRLSCAASGRTFSDYAMGWFRQAPGKEREFVAAITWNGGRVFYTASVKGRFTISRDNAKNTMYLQMNSLKPEDTAVYYCAADKDRRTDYLGHPVAYWGQGTQVTVSSGGGGSGGGGSGGGGSGGGGSGGGGSGGGGSGGGGSEVQLVESGGGLVQAGGSLRLSCAASGRTFSDYAMGWFRQAPGKEREFVAAITWNGGRVFYTASVKGRFTISRDNAKNTMYLQMNSLKPEDTAVYYCAADKDRRTDYLGHPVAYWGQGTQVTVSS |  |  |  |  |  | 98 | 8.01 | 100 | 4.14 | 100 | 8.64 | 100 | 9.34 | 100 | 28.5
CXCR20017 (other, Two different VHH joined by a GlySer linker; also called 97A9-35GS-137B7; not shown: C-terminal c-myc tag and His6 tag coded by pAX100) EVQLVESGGGLVQPGGSLRLSCVASGSIVRINTMGWYRQTPGKQRELVADITSGGNINYIDAVKGRFTISRDNTKNTVYLQMNSLKPEDTAVYYCNAEIVVLVGVWTQRARTGNYWGQGTQVTVSSGGGGSGGGGSGGGGSGGGGSGGGGSGGGGSGGGGSEVQLVESGGGLVQPGGSVRLSCVASGIIFRLSALGWTRQGPGKAREWVAGINSDGTTNYADPVKGRFTISRDNAKNTIYLHMDMLKPEDTAVYYCASGKYRGQGTQVTVSS |  |  |  |  |  | 73 | 29.5 | 99 | 3.4 | 100 | 1080 | 100 | 22.9 |  | 
143B3 (VHH, Tested as periplasmic extract only; also called 143B03; not shown: C-terminal c-myc tag and His6 tag coded by the vector) VHH: EVQLVESGGGLVQPGGSLRLSCAASGFTFSTYWMYWVRQAPGKGLDWVSAINAGGDSTYYADPVKGRFTISRDNNKNTLYLQMNSLKPEDTALYYCATVRGTARDLDYWGQGTQVTVSS | 70.8 |  |  |  |  |  |  |  |  |  |  |  |  |  | 
CXCR20021 (bispecific antibody, Biparatopic: two VHH joined by a GlySer linker; also called 127D1-35GS-163E3; 127D1-163E3; not shown: C-terminal c-myc tag and His6 tag coded by pAX100) EVQLVESGGGLVQAGESLRLSCAASGSTFDFKVMGWYRQPPGKQREGVAAIRLSGNMHYAESVKGRFTISKANAKNTVYLQMNSLRPEDTAVYYCKVNIRGQDYWGQGTQVTVSSGGGGSGGGGSGGGGSGGGGSGGGGSGGGGSGGGGSEVQLVESGGGLVQPGGSLRLSCVASGRIFSSNAMGWFRQAPGKEREFVAAITWRSGGSAYYADSAKGRFTISRDNAKNTVYLQMNSLKPEDTAVYYCAAGGSSWLSFPPDYWGQGTQVTVSS |  | 100 | 100 | 0.787 | 0.827 | 98.5 | 1.85 | 99.5 | 1.09 | 100 | 2.31 | 100 | 7.32 | 100 | 0.551
143A5 (VHH, Tested as periplasmic extract only; also called 143A05; not shown: C-terminal c-myc tag and His6 tag coded by the vector) VHH: KVQLVESGGGLVQAGGSLRLSCAASGRAFNYYVMAWFRQAQGKEREFVAAISTRGSMTKYSDSVQGRFTISRDNAKNTVYLHMNSLKPEDTAVYYCAADPRGSSWSFSSGGYDYWGQGTQVTVSS | 72.6 |  |  |  |  |  |  |  |  |  |  |  |  |  | 
CXCR20023 (bispecific antibody, Two different VHH joined by a GlySer linker; also called 163D2-35GS-163E3; not shown: C-terminal c-myc tag and His6 tag coded by pAX100) EVQLVESGGGLVQAGGSLRLSCAASGRTFSDYAMGWFRQAPGKEREFVAAITWNGGRVFYTASVKGRFTISRDNAKNTMYLQMNSLKPEDTAVYYCAADKDRRTDYLGHPVAYWGQGTQVTVSSGGGGSGGGGSGGGGSGGGGSGGGGSGGGGSGGGGSEVQLVESGGGLVQPGGSLRLSCVASGRIFSSNAMGWFRQAPGKEREFVAAITWRSGGSAYYADSAKGRFTISRDNAKNTVYLQMNSLKPEDTAVYYCAAGGSSWLSFPPDYWGQGTQVTVSS |  |  |  |  |  | 96 | 6.61 | 99 | 4.28 | 100 | 12 | 100 | 14.8 | 100 | 26.6

Next, values leading:

FACS Gro-α competition (% inhibition) (Human CXCR2 [1]) [%] | [35S]GTPγS % inhibition of max (ENA-78) (Human CXCR2 [2]) [%] | [35S]GTPγS % inhibition of max (IL-8) (Human CXCR2 [2]) [%] | [35S]GTPγS IC50 (ENA-78) (Human CXCR2 [2]) [nM] | [35S]GTPγS IC50 (IL-8) (Human CXCR2 [2]) [nM] | % inhibition of max (Cynomolgus CXCR2 [3]) [%] | IC50 (Cynomolgus CXCR2 [3]) [nM] | % inhibition of max (Human CXCR2 [4]) [%] | IC50 (Human CXCR2 [4]) [nM] | FLIPR % inhibition of max (Cynomolgus CXCR2 [5]) [%] | FLIPR IC50 (GRO-α induced calcium release) (Cynomolgus CXCR2 [5]) [nM] | FLIPR % inhibition of max (Human CXCR2 [6]) [%] | FLIPR IC50 (GRO-α induced calcium release) (Human CXCR2 [6]) [nM] | [35S]GTPγS % inhibition of max (GRO-α) (Human CXCR2 [2]) [%] | [35S]GTPγS IC50 (GRO-α) (Human CXCR2 [2]) [nM] | Binder
 | 100 | 100 | 1.38 | 0.84 | 99 | 1.98 | 100 | 0.49 | 100 | 4.26 | 100 | 15.2 |  |  | CXCR20031 (bispecific antibody, Biparatopic: two VHH joined by a GlySer linker; also called 2B2-35GS-163E3; not shown: C-terminal c-myc tag and His6 tag coded by pAX100) EVQLVESGGELVQPGGSLRLSCAASGSILTINAMGWYRQAPGKQRELVVRRTRGGSTTYQDSVKGRFTISADIAKKTMYLQMNSLKPEDTAVYYCMLDDRGGVYWGQGTQVTVSSGGGGSGGGGSGGGGSGGGGSGGGGSGGGGSGGGGSEVQLVESGGGLVQPGGSLRLSCVASGRIFSSNAMGWFRQAPGKEREFVAAITWRSGGSAYYADSAKGRFTISRDNAKNTVYLQMNSLKPEDTAVYYCAAGGSSWLSFPPDYWGQGTQVTVSS
 |  |  |  |  | 95 | 5.32 | 99 | 5.27 | 100 | 11.8 | 100 | 26.4 | 100 | 30.3 | CXCR20024 (VHH, Bivalent: two VHH joined by a GlySer linker; also called 163E3-35GS-163E3; not shown: C-terminal c-myc tag and His6 tag coded by pAX100) EVQLVESGGGLVQPGGSLRLSCVASGRIFSSNAMGWFRQAPGKEREFVAAITWRSGGSAYYADSAKGRFTISRDNAKNTVYLQMNSLKPEDTAVYYCAAGGSSWLSFPPDYWGQGTQVTVSSGGGGSGGGGSGGGGSGGGGSGGGGSGGGGSGGGGSEVQLVESGGGLVQPGGSLRLSCVASGRIFSSNAMGWFRQAPGKEREFVAAITWRSGGSAYYADSAKGRFTISRDNAKNTVYLQMNSLKPEDTAVYYCAAGGSSWLSFPPDYWGQGTQVTVSS
 | 100 | 100 | 0.116 | 0.997 | 99 | 1.91 | 100 | 0.5 | 100 | 3.65 | 100 | 14.7 |  |  | CXCR20032 (bispecific antibody, Biparatopic: two VHH joined by a GlySer linker; also called 2B2-35GS-163D2; not shown: C-terminal c-myc tag and His6 tag coded by pAX100) EVQLVESGGELVQPGGSLRLSCAASGSILTINAMGWYRQAPGKQRELVVRRTRGGSTTYQDSVKGRFTISADIAKKTMYLQMNSLKPEDTAVYYCMLDDRGGVYWGQGTQVTVSSGGGGSGGGGSGGGGSGGGGSGGGGSGGGGSGGGGSEVQLVESGGGLVQAGGSLRLSCAASGRTFSDYAMGWFRQAPGKEREFVAAITWNGGRVFYTASVKGRFTISRDNAKNTMYLQMNSLKPEDTAVYYCAADKDRRTDYLGHPVAYWGQGTQVTVSS
 |  |  |  |  | 98.5 | 2.08 | 99 | 0.9 | 100 | 7.88 | 100 | 12.2 | 100 | 0.891 | CXCR20025 (bispecific antibody, Biparatopic: two VHH joined by a GlySer linker; also called 163D2-35GS-127D1; not shown: C-terminal c-myc tag and His6 tag coded by pAX100) EVQLVESGGGLVQAGGSLRLSCAASGRTFSDYAMGWFRQAPGKEREFVAAITWNGGRVFYTASVKGRFTISRDNAKNTMYLQMNSLKPEDTAVYYCAADKDRRTDYLGHPVAYWGQGTQVTVSSGGGGSGGGGSGGGGSGGGGSGGGGSGGGGSGGGGSEVQLVESGGGLVQAGESLRLSCAASGSTFDFKVMGWYRQPPGKQREGVAAIRLSGNMHYAESVKGRFTISKANAKNTVYLQMNSLRPEDTAVYYCKVNIRGQDYWGQGTQVTVSS
